Data reported in paper PMC5207774, “Atomic structures of fibrillar segments of hIAPP suggest tightly mated β-sheets are important for cytotoxicity” (eLife, 2017).

Target: the molecule itself
Experiment: crystal structure; MicroED (electron diffraction in a cryo electron microscope, 200 kV) from 3D peptide crystals only a few hundred nanometers thick; self-association of the peptide in the crystal

B1: hIAPP segment 15–25 WT (15-FLVHSSNNFGA-25) (peptide)
peptide: FLVHSSNNFGA
notes: human islet amyloid polypeptide (hIAPP), residues 15-25, wild type; numbers count on: the mature protein (37-residue hormone); Forms 3D nanocrystals and fibrils (striated ribbons); also called spine segment 15–25 WT; source: synthetic peptide: GenScript, greater than 98% purity
Q: Does B1 bind?
A: Result: binds

B2: hIAPP segment 19–29 S20G (19-SGNNFGAILSS-29) (peptide)
peptide: SGNNFGAILSS
notes: human islet amyloid polypeptide (hIAPP), residues 19-29, with the early onset familial mutation S20G; numbers count on: the mature protein (37-residue hormone); Forms 3D nanocrystals and fibrils; the number of chains in the assembly is open-ended; also called spine segment 19–29 S20G; source: synthetic peptide: GenScript, greater than 98% purity
Q: Does B2 bind?
A: Result: binds
